# Reference: patent publication US20250044282A1
# Biological target: HIV-1 integrase fused to HA tag at the C terminus (INHA) (HIV-1 LAI (BRU)) (UniProt P03367)
substance,measurement,value
HIV-1 CA (capsid protein) (from UniProt P03348 133-363),percentage of colocalization,70%
